Source: patent US20220112276A1 (Janssen / Centocor, published 2022)
Substitutions are numbered along the chain they refer to.

T1: mouse pIgR extracellular domain (ECD) (mouse, UniProt O70570 19-645)
T1 construct: Bought from R&D Systems (Cat 2800-PG-050); also called mpIgR ECD
T1 sequence: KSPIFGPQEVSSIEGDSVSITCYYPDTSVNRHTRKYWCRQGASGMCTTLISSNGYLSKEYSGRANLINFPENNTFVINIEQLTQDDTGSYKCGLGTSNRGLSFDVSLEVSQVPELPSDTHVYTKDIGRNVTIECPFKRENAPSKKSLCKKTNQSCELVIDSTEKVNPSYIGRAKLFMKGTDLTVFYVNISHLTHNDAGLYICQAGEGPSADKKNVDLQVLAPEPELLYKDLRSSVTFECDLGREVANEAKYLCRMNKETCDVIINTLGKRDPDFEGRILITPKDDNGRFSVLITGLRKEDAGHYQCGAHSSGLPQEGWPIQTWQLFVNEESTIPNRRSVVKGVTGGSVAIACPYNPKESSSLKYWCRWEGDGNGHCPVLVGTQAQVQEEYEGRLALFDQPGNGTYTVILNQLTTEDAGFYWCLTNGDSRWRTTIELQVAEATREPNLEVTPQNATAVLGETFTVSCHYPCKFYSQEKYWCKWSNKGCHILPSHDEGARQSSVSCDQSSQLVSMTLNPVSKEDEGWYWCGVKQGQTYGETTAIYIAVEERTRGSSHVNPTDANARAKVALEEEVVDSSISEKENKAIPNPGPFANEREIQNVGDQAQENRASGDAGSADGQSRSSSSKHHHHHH

T2: rat pIgR extracellular domain (rat, UniProt P15083 19-643)
T2 construct: extracellular domain
T2 sequence (looked up): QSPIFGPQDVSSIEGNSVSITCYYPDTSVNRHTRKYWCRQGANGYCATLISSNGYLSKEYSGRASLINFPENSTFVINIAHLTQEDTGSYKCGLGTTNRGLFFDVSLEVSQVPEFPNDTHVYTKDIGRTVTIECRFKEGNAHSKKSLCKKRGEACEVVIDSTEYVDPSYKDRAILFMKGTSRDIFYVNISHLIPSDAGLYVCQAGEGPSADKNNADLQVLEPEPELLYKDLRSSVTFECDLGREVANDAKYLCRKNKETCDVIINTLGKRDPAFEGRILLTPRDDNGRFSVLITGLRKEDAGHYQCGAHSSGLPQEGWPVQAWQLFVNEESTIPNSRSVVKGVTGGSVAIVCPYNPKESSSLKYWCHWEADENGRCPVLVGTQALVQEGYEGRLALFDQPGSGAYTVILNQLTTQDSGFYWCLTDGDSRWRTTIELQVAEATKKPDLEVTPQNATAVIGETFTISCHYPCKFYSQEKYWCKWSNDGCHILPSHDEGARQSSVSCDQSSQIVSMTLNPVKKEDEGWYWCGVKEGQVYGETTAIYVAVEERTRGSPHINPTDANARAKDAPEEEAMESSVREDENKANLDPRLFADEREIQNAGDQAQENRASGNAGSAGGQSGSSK

B1: 01H06R3L VHH Mono-Fc (Fc fusion)
chain: EVQLVESGGGLVQAGDSLRLSCAASGRTRTTYGMGWFRQAPGKEREFVTTITWSGPTNYKYYADSVKGRFTISRDNAKNTAYLQMNSLKPDDTAVYYCAASTVLTDPRVPTEYDYWGQGTQVTVSSSPAPELLGGPSVFLFPPKPKDTLMISRTPEVTCVVVDVSHEDPEVKFNWYVDGVEVHNAKTKPREEQYNSTYRVVSVLTVLHQDWLNGKEYKCKVSNKALPAPIEKTISKAKGQPREPQVYTKPPSREEMTKNQVSLSCLVKGFYPSDIAVEWESNGQPENNYKTTVPVLDSDGSFRLASYLTVDKSRWQQGNVFSCSVMHEALHNHYTQKSLSLSPGK
B2: 01H11R2LS VHH Mono-Fc (Fc fusion)
chain: EVQLVESGGGLVQAGDSLRLSCAASGRTLTTYGMGWFRQAPGKEREFVATIKWSGSTNYKYYADSVKGRFTISRDNAKNTVYLQMNSLKPEDTAVYYCAAGTVLGDPRVLNEYDYWGQGTLVTVSSSPAPELLGGPSVFLFPPKPKDTLMISRTPEVTCVVVDVSHEDPEVKFNWYVDGVEVHNAKTKPREEQYNSTYRVVSVLTVLHQDWLNGKEYKCKVSNKALPAPIEKTISKAKGQPREPQVYTKPPSREEMTKNQVSLSCLVKGFYPSDIAVEWESNGQPENNYKTTVPVLDSDGSFRLASYLTVDKSRWQQGNVFSCSVMHEALHNHYTQKSLSLSPGK
B3: 02E01R3LS VHH Mono-Fc (Fc fusion)
chain: B1 chain with E1Q, R29F, P56S, A81V, T105R
B4: 01H08R3 VHH Mono-Fc (Fc fusion)
chain: QVQLVESGGGSVQTGGSLRLSCTASGRTFSNYGMGWFRQAPGKEREFVAGITRSGRTTYYYYADAVKGRFTIPRDNADNTIYLQMDSMKPDDTAVYYCAARQGENNYDPRSGSAYNYWGPGTQVTVSSSPAPELLGGPSVFLFPPKPKDTLMISRTPEVTCVVVDVSHEDPEVKFNWYVDGVEVHNAKTKPREEQYNSTYRVVSVLTVLHQDWLNGKEYKCKVSNKALPAPIEKTISKAKGQPREPQVYTKPPSREEMTKNQVSLSCLVKGFYPSDIAVEWESNGQPENNYKTTVPVLDSDGSFRLASYLTVDKSRWQQGNVFSCSVMHEALHNHYTQKSLSLSPGK
B5: 01D05R2LS VHH Mono-Fc (Fc fusion)
chain: EVQLVESGGGLVQTGGSLRLSCAASGRTFSPYAMGWFRQAPGKEREFVAAIRWSGATTYKYVGDSVQGRFTISRDAAGNTVYLQMNSVKPEDTAVYYCAADRVPKDISIDPRNPKDWDYWGKGTLVTVSSSPAPELLGGPSVFLFPPKPKDTLMISRTPEVTCVVVDVSHEDPEVKFNWYVDGVEVHNAKTKPREEQYNSTYRVVSVLTVLHQDWLNGKEYKCKVSNKALPAPIEKTISKAKGQPREPQVYTKPPSREEMTKNQVSLSCLVKGFYPSDIAVEWESNGQPENNYKTTVPVLDSDGSFRLASYLTVDKSRWQQGNVFSCSVMHEALHNHYTQKSLSLSPGK
B6: 01B06R2LS VHH Mono-Fc (Fc fusion)
chain: B5 chain with E1Q
B7: 01H01R2LS VHH Mono-Fc (Fc fusion)
chain: B5 chain with D64G, L125Q
B8: 01A09R3L VHH Mono-Fc (Fc fusion)
chain: EVQLVESGGGVVQAEDSLRLSCAASGLSFSLSRMGWFRQAPGKEREFVATIEWSGRSTYKYYDDSVKGRFAVSGDNTKNTMNLQMKGLNLEDTGVYYCAANPNNYGDPRTPGAYQYWGQGTQVTVSSSPAPELLGGPSVFLFPPKPKDTLMISRTPEVTCVVVDVSHEDPEVKFNWYVDGVEVHNAKTKPREEQYNSTYRVVSVLTVLHQDWLNGKEYKCKVSNKALPAPIEKTISKAKGQPREPQVYTKPPSREEMTKNQVSLSCLVKGFYPSDIAVEWESNGQPENNYKTTVPVLDSDGSFRLASYLTVDKSRWQQGNVFSCSVMHEALHNHYTQKSLSLSPGK
B9: 01F04R2LS VHH Mono-Fc (Fc fusion)
chain: EVQLVESGGGLVQTGGSLRLSCAASGRTFSSYAMGWFRQAPGKEPERDFVAALRWSNDRTYYKYYADSVKGRFTISRDNAKNTVYLQMNTLKPEDTAVYYCAGGNYFSDPRVDKEYNYWGQGTQVTVSSSPAPELLGGPSVFLFPPKPKDTLMISRTPEVTCVVVDVSHEDPEVKFNWYVDGVEVHNAKTKPREEQYNSTYRVVSVLTVLHQDWLNGKEYKCKVSNKALPAPIEKTISKAKGQPREPQVYTKPPSREEMTKNQVSLSCLVKGFYPSDIAVEWESNGQPENNYKTTVPVLDSDGSFRLASYLTVDKSRWQQGNVFSCSVMHEALHNHYTQKSLSLSPGK
B10: 01B12R2 VHH Mono-Fc (Fc fusion)
chain: EVQLVESGGGLVQAGGSLRLSCAASGRTFSSGIMGWFRQAPGKEREFVAAIEWSGGNTYKYYAESVKGRFAISRDNAKTTAYLQMGSLNPEDTALYYCAADESPSRYIDLRRPAPYHYWGQGTLVTVSSSPAPELLGGPSVFLFPPKPKDTLMISRTPEVTCVVVDVSHEDPEVKFNWYVDGVEVHNAKTKPREEQYNSTYRVVSVLTVLHQDWLNGKEYKCKVSNKALPAPIEKTISKAKGQPREPQVYTKPPSREEMTKNQVSLSCLVKGFYPSDIAVEWESNGQPENNYKTTVPVLDSDGSFRLASYLTVDKSRWQQGNVFSCSVMHEALHNHYTQKSLSLSPGK
B11: 02B12R3 VHH Mono-Fc (Fc fusion)
chain: QVQLVESGGGWVQTGGSLRLSCAASGRTVSSYYMGWFRQTPGKEREFVAAISWVGSSTYKYYTDSAKGRFTISRDNAKNTVYLQMNSLKPEDTAVYYCAARPRVGDPRSRYDDDNWGQGTQVTVSSSPAPELLGGPSVFLFPPKPKDTLMISRTPEVTCVVVDVSHEDPEVKFNWYVDGVEVHNAKTKPREEQYNSTYRVVSVLTVLHQDWLNGKEYKCKVSNKALPAPIEKTISKAKGQPREPQVYTKPPSREEMTKNQVSLSCLVKGFYPSDIAVEWESNGQPENNYKTTVPVLDSDGSFRLASYLTVDKSRWQQGNVFSCSVMHEALHNHYTQKSLSLSPGK
B12: 01B08R2 VHH Mono-Fc (Fc fusion)
chain: EVQLVESGGRLVQAGGSLRLSCAASGLTRSDYAMGWFRQAPGKEREFVATLKWSEGSRFMYRAEDVKGRFTISSGAAKTTVWLDMDALNPEDTAVYYCAAGFNVGFVRRASEYNFWGQGTLVTVSSSPAPELLGGPSVFLFPPKPKDTLMISRTPEVTCVVVDVSHEDPEVKFNWYVDGVEVHNAKTKPREEQYNSTYRVVSVLTVLHQDWLNGKEYKCKVSNKALPAPIEKTISKAKGQPREPQVYTKPPSREEMTKNQVSLSCLVKGFYPSDIAVEWESNGQPENNYKTTVPVLDSDGSFRLASYLTVDKSRWQQGNVFSCSVMHEALHNHYTQKSLSLSPGK

The binders below were run against T1, mouse pIgR extracellular domain (ECD) (assay: SPR, VHH captured by anti-Fc, ECD analyte).
In short: (§1)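 Single-cycle kinetics: ECD analyte from 30 nM, 3-fold series, low to high, with 30 min off-rate monitoring, over VHH captured at 0.5 ug/ml (~200-300 RU). HBSP plus 100 ug/ml BSA at 30 μL/min. Reference cell and buffer blank subtracted; global 1:1 Langmuir fit gave kon, koff, KD.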
In the case of B1, the Kd is reported as 4.56 nM.
In the case of B2, the Kd is reported as 2.67 nM.
For B3, the Kd was 2.77 nM.
Binder B4 has a Kd of 3.95 nM.
B5 gave a Kd of 13.9 nM.
B6 was tested, and the Kd was 14.8 nM.
Work on B7 yielded a Kd of 12.8 nM.
Binder B8 has a Kd of 0.301 nM.
With B9 the Kd was 9.03 nM.
B10 gave a Kd of 107 nM.
With B11 the Kd was 4.32 nM.
For B12, the Kd was 586 nM.

These binders were tested against T2, rat pIgR extracellular domain (assay: SPR, VHH captured by anti-Fc, ECD analyte).
In short: as §1
B1 showed a Kd of 0.897 nM.
With B2 the Kd was 1.46 nM.
With B3 the Kd was 1.64 nM.
B4 showed a Kd of 6.19 nM.
B5 was tested, and the Kd was 33.3 nM.
B6 was tested, and the Kd was 33.2 nM.
B7 was tested, and the Kd was 18.1 nM.
For B8, the Kd was 0.234 nM.
Work on B9 yielded a Kd of 8.9 nM.
B10 gave a Kd of 18.2 nM.
B11 was tested, and the Kd was 3.44 nM.
B12 gave a Kd of 116 nM.

What follows are binders tested against T3, human pIgR extracellular domain (ECD) (human, UniProt P01833 19-638) (assay: SPR, VHH captured by anti-Fc, ECD analyte).
T3 construct: Bought from R&D Systems (Cat 2717-PG-050); also called hpIgR ECD
T3 sequence (P01833 other isoform, or with tags, fused parts or gaps): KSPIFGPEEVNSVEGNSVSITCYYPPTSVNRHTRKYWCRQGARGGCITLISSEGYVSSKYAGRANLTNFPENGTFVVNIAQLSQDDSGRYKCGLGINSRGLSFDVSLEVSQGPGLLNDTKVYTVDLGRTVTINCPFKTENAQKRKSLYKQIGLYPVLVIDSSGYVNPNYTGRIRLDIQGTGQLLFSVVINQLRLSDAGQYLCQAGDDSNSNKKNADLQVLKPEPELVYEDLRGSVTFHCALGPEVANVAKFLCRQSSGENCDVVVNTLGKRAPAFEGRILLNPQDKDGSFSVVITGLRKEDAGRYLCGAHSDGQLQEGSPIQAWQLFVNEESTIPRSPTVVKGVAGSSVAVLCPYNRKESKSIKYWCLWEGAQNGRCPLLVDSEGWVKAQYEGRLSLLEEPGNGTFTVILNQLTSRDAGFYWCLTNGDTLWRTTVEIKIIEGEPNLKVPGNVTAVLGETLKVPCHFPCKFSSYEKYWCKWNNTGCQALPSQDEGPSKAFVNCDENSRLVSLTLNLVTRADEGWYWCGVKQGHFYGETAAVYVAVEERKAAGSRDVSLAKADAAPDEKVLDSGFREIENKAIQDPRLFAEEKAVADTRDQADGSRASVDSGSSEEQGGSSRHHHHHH
In short: as §1
B1 was tested, and the Kd was 5.26 nM.
B2 was tested, and the Kd was 4.07 nM.
B3 gave a Kd of 5.32 nM.
With B4 the Kd was 61 nM.
In the case of B5, the Kd is reported as 7.9 nM.
For B6, the Kd was 8.46 nM.
With B7 the Kd was 6.91 nM.
Binder B8 has a Kd of 0.681 nM.
B9 showed a Kd of 35.8 nM.
Work on B10 yielded a Kd of 4.48 nM.
B11 showed a Kd of 16.6 nM.
B12 gave a Kd of 1.05 nM.

These binders were tested against T4, cynomolgus monkey pIgR extracellular domain (cynomolgus monkey, UniProt A0A2K5WMU9 19-638) (assay: SPR, VHH captured by anti-Fc, ECD analyte).
T4 construct: extracellular domain
T4 sequence (A0A2K5WMU9 entry or part of it): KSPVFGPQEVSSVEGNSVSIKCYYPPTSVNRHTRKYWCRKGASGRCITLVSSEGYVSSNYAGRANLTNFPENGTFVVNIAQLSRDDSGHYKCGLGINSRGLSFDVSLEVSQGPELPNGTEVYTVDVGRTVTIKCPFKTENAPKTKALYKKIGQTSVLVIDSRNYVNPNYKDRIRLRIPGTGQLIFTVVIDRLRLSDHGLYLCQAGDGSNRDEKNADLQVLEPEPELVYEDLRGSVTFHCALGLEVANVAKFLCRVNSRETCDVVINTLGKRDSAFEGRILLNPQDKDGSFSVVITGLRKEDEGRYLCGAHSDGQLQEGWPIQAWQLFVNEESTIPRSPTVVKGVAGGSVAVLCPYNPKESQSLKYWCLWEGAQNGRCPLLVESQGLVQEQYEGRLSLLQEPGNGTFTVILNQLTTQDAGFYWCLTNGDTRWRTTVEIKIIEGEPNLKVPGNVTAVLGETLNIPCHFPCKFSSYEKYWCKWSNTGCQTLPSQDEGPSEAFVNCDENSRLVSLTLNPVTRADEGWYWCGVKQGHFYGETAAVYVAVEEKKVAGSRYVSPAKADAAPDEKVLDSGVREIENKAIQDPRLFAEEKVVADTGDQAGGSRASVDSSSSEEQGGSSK
In short: as §1
B1 gave a Kd of 1.66 nM.
Work on B2 yielded a Kd of 2.31 nM.
For B3, the Kd was 5.05 nM.
B4 was tested, and the Kd was 44.3 nM.
In the case of B5, the Kd is reported as 116 nM.
With B6 the Kd was 111 nM.
In the case of B7, the Kd is reported as 123 nM.
With B8 the Kd was 0.353 nM.
With B9 the Kd was 28 nM.
Work on B10 yielded a Kd of 6.54 nM.
B11 was tested, and the Kd was 31.5 nM.
Binder B12 has a Kd of 219 nM.
